Positions count from the first letter of the chain named.
B1: CD3XCLEC12A bsAb (3056x3116) with DM-Fc (bispecific antibody, V domains shown)
VH 1: QVQLVQSGGGVVQPGRSLRLSCVASGFTFSSYGMHWVRQAPGKGLEWVAAIWYNGRKQDYADSVKGRFTISRDNSKNTLYLQMNSLRAEDTAVYYCTRGTGYNWFDPWGQGTLVTVSS
VH 2: QVQLQESGPGLVKPSETLSLTCVVSGGSISSSNWWSWVRQPPGKGLEWIGEIYHSGSPDYNPSLKSRVTISVDKSRNQFSLKLSSVTAADTAVYYCAKVSTGGFFDYWGQGTLVTVSS
VL: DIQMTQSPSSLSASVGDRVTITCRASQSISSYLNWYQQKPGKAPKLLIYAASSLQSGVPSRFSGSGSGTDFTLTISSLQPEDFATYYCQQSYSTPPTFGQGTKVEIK
B2: CLEC12A monospecific antibody (3116x3116) (antibody, V domains shown)
VH: B1 VH 2
VL: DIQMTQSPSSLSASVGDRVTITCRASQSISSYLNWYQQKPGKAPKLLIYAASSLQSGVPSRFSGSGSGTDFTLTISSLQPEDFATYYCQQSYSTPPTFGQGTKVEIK
notes: Bivalent IgG; also called CLEC12A benchmark antibody; CLEC12A benchmark IgG
B3: 4327 CLEC12A IgG (antibody, V domains shown)
VH: QVQLVQSGAEVKKPGASVKVSCKASGYTFTSYYMHWVRQAPGQGLEWMGIINPSGGSTSYAQKFQGRVTMTRDTSTSTVYMELSSLRSEDTAVYYCAKGTTGDWFDYWGQGTLVTVSS
VL: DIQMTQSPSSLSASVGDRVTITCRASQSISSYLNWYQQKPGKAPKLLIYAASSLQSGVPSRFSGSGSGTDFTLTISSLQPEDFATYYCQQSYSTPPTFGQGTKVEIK
notes: Full length human IgG1
B4: 4331 CLEC12A IgG (antibody, V domains shown)
VH: B3 VH with Q1E, K98R, T100N, T101Y, W104E
VL: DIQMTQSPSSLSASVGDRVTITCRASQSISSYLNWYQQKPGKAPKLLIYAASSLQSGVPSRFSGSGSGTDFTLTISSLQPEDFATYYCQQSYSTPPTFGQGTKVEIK
notes: Full length human IgG1
B5: candidate 3056x3116 CD3xCLEC12A bispecific IgG1 (bispecific antibody, V domains shown)
VH 1: B1 VH 1
VH 2: B1 VH 2
VL: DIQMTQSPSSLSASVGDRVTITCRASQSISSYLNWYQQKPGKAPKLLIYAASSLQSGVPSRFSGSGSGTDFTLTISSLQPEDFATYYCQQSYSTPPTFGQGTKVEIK
notes: Full length human IgG1 with wild type Fc and a common huVk1-39 light chain; The heavy chains were heterodimerised by known methods (Gunasekaran et al; WO2009/089004); also called CD3XCLEC12A WT Fc IgG1
B6: CD3 monospecific antibody (3056x3056) (antibody, V domains shown)
VH: B1 VH 1
VL: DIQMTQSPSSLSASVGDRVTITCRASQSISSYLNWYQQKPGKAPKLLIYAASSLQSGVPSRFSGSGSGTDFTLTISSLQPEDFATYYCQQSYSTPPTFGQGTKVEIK
notes: Full length bivalent monoclonal IgG; also called CD3 IgG

Tests used:
[1] = target: T1, CLEC12A expressed on cells (CLEC12A-transfected CHO cells; HL60 cells) (UniProt Q5QGZ9 1-265, limits assumed); test: cell-based or functional assay
T1 sequence (looked up): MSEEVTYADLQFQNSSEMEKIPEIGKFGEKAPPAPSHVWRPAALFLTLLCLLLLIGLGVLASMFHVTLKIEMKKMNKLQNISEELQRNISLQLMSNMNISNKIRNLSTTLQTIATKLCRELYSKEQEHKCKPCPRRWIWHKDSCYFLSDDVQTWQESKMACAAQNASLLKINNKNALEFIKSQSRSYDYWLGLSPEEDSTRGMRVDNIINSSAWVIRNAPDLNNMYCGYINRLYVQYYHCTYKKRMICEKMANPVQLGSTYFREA

[2] = target: T1, CLEC12A expressed on cells …; test: flow cytometry on HL60 cells, optimized IgG concentration
[3] = target: T1, CLEC12A expressed on cells …; test: flow cytometry on CLEC12A-transfected CHO cells
[4] = target: T2, extracellular domain of CLEC12A (amino acids 75 to 275) coupled to a His-tag (Sino Biological, cat.no. … (UniProt Q5QGZ9-1 75-275)); test: ELISA, extracellular domain of CLEC12A coated at 2 µg/ml
T2 construct: range 75-275; Bought protein; also called coated CLEC12A; isolated extracellular domain of CLEC12A; not shown: His-tag
T2 sequence (looked up): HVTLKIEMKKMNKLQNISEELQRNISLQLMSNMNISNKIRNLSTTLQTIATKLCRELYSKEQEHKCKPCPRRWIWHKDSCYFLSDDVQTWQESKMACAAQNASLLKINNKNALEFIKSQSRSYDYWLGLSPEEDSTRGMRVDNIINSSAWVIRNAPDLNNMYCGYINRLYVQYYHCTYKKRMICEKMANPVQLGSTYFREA

Binder | lysis of HL60 cells by AML patient derived T-cells (percentage of specific lysis relative to IgG) [1] | lysis of HL60 cells by healthy donor T cells (percentage of specific lysis relative to IgG) [1] | mean fluorescent intensity [2] | mean fluorescent intensity [3] | optical density [4]
B1 | 68% | 69% | – | – | –
B2 | – | – | 1470 | 4150 | 1.42
B3 | – | – | 1560 | – | 1.31
B4 | – | – | 1110 | – | 1.33
B5 | – | – | – | 5300 | –
B6 | – | – | – | 282 | –

From patent US20250026823A1 (MERUS N V, published 2025)
